Reference: publication doi:10.1101/2020.07.31.231399

How the values were obtained:
[1] = target: M. sp. JS623 type IV-B Csf2 (Cas7-like backbone subunit), N-terminally Strep-tagged (Mycobacterium sp. JS623); test: cryo-EM structure
[2] = target: M. sp. JS623 type IV-B Csf4 (Cas11 small subunit) (Mycobacterium sp. JS623); test: cryo-EM structure

**Q.** For “M. sp. JS623 type IV-B Csf2 (Cas7-like backbone subunit), N-terminally Strep-tagged (natural protein)”, which stoichiometry N [1] is on record?
**A.** Its stoichiometry N is 7.

**Q.** With “M. sp. JS623 type IV-B Csf4 (Cas11 small subunit) (natural protein)” as the substance, how does the stoichiometry N [2] read?
**A.** Its stoichiometry N is 5.
